Test results published in patent publication US11278600B2, “Human alpha-galactosidase variants” (Codexis, Inc., priority 2014, dated 2022).
Substitutions are numbered along the chain they refer to.

B1: 222 (protein)
chain: LDNGLARTPTMGWLHWERFMCNLDCQEEPDSCISEKLFMEMAELMVSEGWKDAGYEYLCIDDCWMAPQRDSEGRLQADPQRFPHGIRQLANYVHSKGLKLGIYADVGNKTCAGFPGSFGYYDIDAQTFADWGVDLLKFDGCYCDSLENLADGYKHMSLALNRTGRSIVYSCEWPLYMWPFQKPNYTEIRQYCNHWRNFADIDDSWASIKSILDWTSFNQERIVDVAGQGGWNDPDMLVIGNFGLSWNQQVTQMALWAIMAAPLFMSNDLRHISPQAKALLQDKDVIAINQDPLGKQGYQLRQGDNFEVWERPLSGLAWAVAMINRQEIGGPRSYTIAVASLGKGVACNPACFITQLLPVKRKLGFYEWDSRLRSHINPTGTVLLQLENTMQMSKDLLL
modifications: Synthetic Polypeptide sequence of Variant No. 222 of mature Human GLA
B2: 232 (protein)
chain: B1 chain with Q228P, D369S
modifications: Synthetic Polypeptide sequence of Variant No. 232 of mature Human GLA
B3: 223 (protein)
chain: B1 chain with Q228P, Q302K, A337P, A350G, K362Q, D369T
modifications: Synthetic Polypeptide sequence of Variant No. 223 of mature Human GLA
B4: 229 (protein)
chain: B1 chain with Q228P, D369T, R373K, I376V
modifications: Synthetic Polypeptide sequence of Variant No. 229 of mature Human GLA
B5: 230 (protein)
chain: B1 chain with Q228P, D369T, S374R
modifications: Synthetic Polypeptide sequence of Variant No. 230 of mature Human GLA
B6: 227 (protein)
chain: B1 chain with Q228P, R325H, D369T
modifications: Synthetic Polypeptide sequence of Variant No. 227 of mature Human GLA
B7: 193 (protein)
chain: B1 chain with A206G, Q228P, D369T
modifications: Synthetic Polypeptide sequence of Variant No. 193 of mature Human GLA
B8: 231 (protein)
chain: B1 chain with Q228P
modifications: Synthetic Polypeptide sequence of Variant No. 231 of mature Human GLA
B9: 226 (protein)
chain: B1 chain with R221T, Q228P, F365L, D369T
modifications: Synthetic Polypeptide sequence of Variant No. 226 of mature Human GLA
B10: 224 (protein)
chain: B1 chain with Q228P, Q302K, M322V, E367N, D369T
modifications: Synthetic Polypeptide sequence of Variant No. 224 of mature Human GLA
B11: 228 (protein)
chain: B1 chain with Q228P, D369T, R373K
modifications: Synthetic Polypeptide sequence of Variant No. 228 of mature Human GLA
B12: 225 (protein)
chain: B1 chain with R165S, Q228P, D369T, T389S
modifications: Synthetic Polypeptide sequence of Variant No. 182 of mature Human GLA
B13: 192 (protein)
chain: B1 chain with A206E, Q228P, D369T
modifications: Synthetic Polypeptide sequence of Variant No. 192 of mature Human GLA
B14: 391 (protein)
chain: LDNGLARTPTMGWLHWERFMCNLDCQEEPDSCISEKLFMEMAERMVSEGWKDAGYEYLCIDDCWMAPQRDSEGRLQADPQRFPHGIRQLANYWHSKGLKLGIYADVGNKTCAGFPGSFGYYDIDAQTFADWGVDLLKFDGCYCDSLENLADGYKHMSLALNRTGRSIVYSCEWPLYMWPFQKPNYTEIRQYCNHWRNFADIDDSWKSIKSILDWTSRNQERIVDVAGPGGWNDPDMLVIGNFGLSWDQQVTQMALWAIMAAPLFMSNDLRHISPQAKALLQDKDVIAINQDPLGKQGYQLRKGDNFEVWERPLSGDAWAVAIINRQEIGGPRSYTIPVASLGKGVACNPACFITQLLPVKRQLGFYNWTSRLKSHINPTGTVLLQLENTMQMSLKDLL
modifications: Synthetic Polypeptide sequence of Variant No. 391 of mature Human GLA

assay: HTP-analysis of yeast culture supernatants, no challenge (MUGal hydrolysis); assay type: biochemical; settings: activity of the variant/activity of Rd2BB (SEQ ID NO: 10), yeast supernatant
How it was run: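 Activity read as 4-methylumbelliferyl α-D-galactopyranoside hydrolysis: fluorescence (355/448 nm) after sodium carbonate stop, following 30-180 min at 37° C with 2 mM MUGal stock at pH 4.6–4.8. Enzyme source is unchallenged culture supernatant of INVSc1 yeast expressing GLA variants, grown 66-84 h at 30° C.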

Q: For B1, which “Relative Activity of GLA Variants After No Challenge (NC)” value is on record?
A: ++ (++ = 1.5 to 2.5 relative activity over Rd2BB (SEQ ID NO: 10))

Q: Which “Relative Activity of GLA Variants After No Challenge (NC)” value does the source give for B2 here?
A: ++ (++ = 1.5 to 2.5 relative activity over Rd2BB (SEQ ID NO: 10))

Q: Which “Relative Activity of GLA Variants After No Challenge (NC)” value does the source give for B3 here?
A: + (+ = 0.5 to 1.5 relative activity over Rd2BB (SEQ ID NO: 10))

Q: With B4 as the molecule, how does the “Relative Activity of GLA Variants After No Challenge (NC)” value read?
A: + (+ = 0.5 to 1.5 relative activity over Rd2BB (SEQ ID NO: 10))

Q: With B5 as the molecule, how does the “Relative Activity of GLA Variants After No Challenge (NC)” value read?
A: + (+ = 0.5 to 1.5 relative activity over Rd2BB (SEQ ID NO: 10))

Q: Which “Relative Activity of GLA Variants After No Challenge (NC)” value does the source give for B6 here?
A: − (− = <0.5 relative activity over Rd2BB (SEQ ID NO: 10))

Q: With B7 as the molecule, how does the “Relative Activity of GLA Variants After No Challenge (NC)” value read?
A: + (+ = 0.5 to 1.5 relative activity over Rd2BB (SEQ ID NO: 10))

Q: For B8, which “Relative Activity of GLA Variants After No Challenge (NC)” value is on record?
A: ++ (++ = 1.5 to 2.5 relative activity over Rd2BB (SEQ ID NO: 10))

Q: For B9, which “Relative Activity of GLA Variants After No Challenge (NC)” value is on record?
A: + (+ = 0.5 to 1.5 relative activity over Rd2BB (SEQ ID NO: 10))

Q: Which “Relative Activity of GLA Variants After No Challenge (NC)” value does the source give for B10 here?
A: ++ (++ = 1.5 to 2.5 relative activity over Rd2BB (SEQ ID NO: 10))

Q: For B11, which “Relative Activity of GLA Variants After No Challenge (NC)” value is on record?
A: + (+ = 0.5 to 1.5 relative activity over Rd2BB (SEQ ID NO: 10))

Q: Which “Relative Activity of GLA Variants After No Challenge (NC)” value does the source give for B12 here?
A: + (+ = 0.5 to 1.5 relative activity over Rd2BB (SEQ ID NO: 10))

Q: For B13, which “Relative Activity of GLA Variants After No Challenge (NC)” value is on record?
A: + (+ = 0.5 to 1.5 relative activity over Rd2BB (SEQ ID NO: 10))

same assay, conditions: activity of the variant/activity of Rd4BB (SEQ ID NO: 15)

Q: For B14, which “Relative Activity of GLA Variants After No Challenge (NC)” value is on record?
A: + (0.5 to 1.5 relative activity over Rd4BB (SEQ ID NO: 15))

assay: HTP-analysis of supernatants pretreated with acid (MUGal hydrolysis); assay type: biochemical; settings: activity of the variant/activity of Rd4BB (SEQ ID NO: 15); challenge at pH 3.7
How it was run: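 Fluorescence of MUGal hydrolysis (Ex. 355 nm, Em. 448 nm) is read after sodium carbonate quench. The enzyme source is INVSc1 yeast culture supernatant, first exposed to pH 3.3-4.3 McIlvaine buffer at 37° C. for 1-3 h, then reacted at pH 4.8 for 30-180 minutes.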

Q: With B14 as the molecule, how does the “Relative Activity of GLA Variants After Challenge at pH 3.7” value read?
A: + (0.5 to 1.5 relative activity over Rd4BB (SEQ ID NO: 15))

same assay, conditions: challenge at pH 4.2; activity of the variant/activity of Rd2BB (SEQ ID NO: 10); yeast supernatant

Q: For B1, which “Relative Activity of GLA Variants After Challenge at pH 4.2” value (“Relative Activity … at pH 4.2” below) is on record?
A: ++ (++ = 1.5 to 2.5 relative activity over Rd2BB (SEQ ID NO: 10))

Q: Which “Relative Activity … at pH 4.2” value does the source give for B2 here?
A: ++ (++ = 1.5 to 2.5 relative activity over Rd2BB (SEQ ID NO: 10))

Q: For B3, which “Relative Activity … at pH 4.2” value is on record?
A: ++ (++ = 1.5 to 2.5 relative activity over Rd2BB (SEQ ID NO: 10))

Q: With B4 as the molecule, how does the “Relative Activity … at pH 4.2” value read?
A: − (− = <0.5 relative activity over Rd2BB (SEQ ID NO: 10))

Q: With B5 as the molecule, how does the “Relative Activity … at pH 4.2” value read?
A: − (− = <0.5 relative activity over Rd2BB (SEQ ID NO: 10))

Q: Which “Relative Activity … at pH 4.2” value does the source give for B6 here?
A: − (− = <0.5 relative activity over Rd2BB (SEQ ID NO: 10))

Q: Which “Relative Activity … at pH 4.2” value does the source give for B7 here?
A: + (+ = 0.5 to 1.5 relative activity over Rd2BB (SEQ ID NO: 10))

Q: For B8, which “Relative Activity … at pH 4.2” value is on record?
A: ++ (++ = 1.5 to 2.5 relative activity over Rd2BB (SEQ ID NO: 10))

Q: Which “Relative Activity … at pH 4.2” value does the source give for B9 here?
A: + (+ = 0.5 to 1.5 relative activity over Rd2BB (SEQ ID NO: 10))

Q: Which “Relative Activity … at pH 4.2” value does the source give for B10 here?
A: +++ (+++ = >2.5 relative activity over Rd2BB (SEQ ID NO: 10))

Q: With B11 as the molecule, how does the “Relative Activity … at pH 4.2” value read?
A: + (+ = 0.5 to 1.5 relative activity over Rd2BB (SEQ ID NO: 10))

Q: For B12, which “Relative Activity … at pH 4.2” value is on record?
A: + (+ = 0.5 to 1.5 relative activity over Rd2BB (SEQ ID NO: 10))

Q: With B13 as the molecule, how does the “Relative Activity … at pH 4.2” value read?
A: + (+ = 0.5 to 1.5 relative activity over Rd2BB (SEQ ID NO: 10))

assay: HTP-analysis of supernatants pretreated with base (MUGal hydrolysis); assay type: biochemical; settings: activity of the variant/activity of Rd4BB (SEQ ID NO: 15); challenge at pH 9.65
How it was run: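 Supernatants from INVSc1 yeast expressing GLA variants (SD-Ura, 66-84 h, 30° C) were mixed with McIlvaine buffer pH 7.0-8.2 or 200 mM sodium bicarbonate pH 9.1-9.7 and held 1-18 h at 37° C. Residual activity was then measured on MUGal at pH 4.8/4.3, 37° C, 30-180 min, by fluorescence (Ex 355/Em 448 nm).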

Q: Which “Relative Activity of GLA Variants After Challenge at pH 9.65” value does the source give for B14 here?
A: − (<0.5 relative activity over Rd4BB (SEQ ID NO: 15))

same assay, conditions: challenge at pH 7.6; activity of the variant/activity of Rd2BB (SEQ ID NO: 10); yeast supernatant

Q: Which “Relative Activity of GLA Variants After Challenge at pH 7.6” value (shortened to “Relative Activity … at pH 7.6”) does the source give for B1 here?
A: + (+ = 0.5 to 1.5 relative activity over Rd2BB (SEQ ID NO: 10))

Q: For B2, which “Relative Activity … at pH 7.6” value is on record?
A: ++ (++ = 1.5 to 2.5 relative activity over Rd2BB (SEQ ID NO: 10))

Q: Which “Relative Activity … at pH 7.6” value does the source give for B3 here?
A: ++ (++ = 1.5 to 2.5 relative activity over Rd2BB (SEQ ID NO: 10))

Q: With B4 as the molecule, how does the “Relative Activity … at pH 7.6” value read?
A: + (+ = 0.5 to 1.5 relative activity over Rd2BB (SEQ ID NO: 10))

Q: Which “Relative Activity … at pH 7.6” value does the source give for B5 here?
A: + (+ = 0.5 to 1.5 relative activity over Rd2BB (SEQ ID NO: 10))

Q: Which “Relative Activity … at pH 7.6” value does the source give for B6 here?
A: − (− = <0.5 relative activity over Rd2BB (SEQ ID NO: 10))

Q: Which “Relative Activity … at pH 7.6” value does the source give for B7 here?
A: + (+ = 0.5 to 1.5 relative activity over Rd2BB (SEQ ID NO: 10))

Q: With B8 as the molecule, how does the “Relative Activity … at pH 7.6” value read?
A: ++ (++ = 1.5 to 2.5 relative activity over Rd2BB (SEQ ID NO: 10))

Q: With B9 as the molecule, how does the “Relative Activity … at pH 7.6” value read?
A: ++ (++ = 1.5 to 2.5 relative activity over Rd2BB (SEQ ID NO: 10))

Q: For B10, which “Relative Activity … at pH 7.6” value is on record?
A: +++ (+++ = >2.5 relative activity over Rd2BB (SEQ ID NO: 10))

Q: Which “Relative Activity … at pH 7.6” value does the source give for B11 here?
A: + (+ = 0.5 to 1.5 relative activity over Rd2BB (SEQ ID NO: 10))

Q: With B12 as the molecule, how does the “Relative Activity … at pH 7.6” value read?
A: + (+ = 0.5 to 1.5 relative activity over Rd2BB (SEQ ID NO: 10))

Q: With B13 as the molecule, how does the “Relative Activity … at pH 7.6” value read?
A: + (+ = 0.5 to 1.5 relative activity over Rd2BB (SEQ ID NO: 10))
